We go through seven molecules from patent US20200331991A1 (Teva, published 2020).

B1: Human adrenomedullin (1-52) (peptide)
peptide: YRQSMNNFQGLRSFGCRFGTCTVQKLAHQIYQFTDKDKDNVAPRSKISPQGY-NH2
modifications: ends and bridges not checked
B2: human α-CGRP 1-19-COOH (peptide)
peptide: ACDTATCVTHRLAGLLSRS-OH
modifications: ends and bridges not checked
B3: Human amylin (1-37) (peptide)
peptide: KCNTATCATQRLANFLVHSSNNFGAILSSTNVGSNTY-NH2
modifications: ends and bridges not checked
B4: antibody G1 Fab fragment (Fab, V domains shown)
VH: EVQLVESGGGLVQPGGSLRLSCAASGFTFSNYWISWVRQAPGKGLEWVAEIRSESDASATHYAEAVKGRFTISRDNAKNSLYLQMNSLRAEDTAVYYCLAYFDYGLAIQNYWGQGTLVTVSS
VL: EIVLTQSPATLSLSPGERATLSCKASKRVTTYVSWYQQKPGQAPRLLIYGASNRYLGIPARFSGSGSGTDFTLTISSLEPEDFAVYYCSQSYNYPYTFGQGTKLEIK
B5: Human calcitonin (1-32) (peptide)
peptide: CGNLSTCMLGTYTQDFNKFHTFPQTAIGVGAP-NH2
modifications: ends and bridges not checked
B6: human α-CGRP 1-13-COOH (peptide)
peptide: ACDTATCVTHRLA-OH
modifications: ends and bridges not checked

Assay [1] concerns the target B4. Description: Biacore competition: G1 Fab 50 nM pre-incubated 1 h with 10 uM peptide, then over biotinylated human α-CGRP on SA chip. From the text:
(§1) Y axis represents percentage of binding blocked by the presence of the competing peptide compared with the binding in the absence of the competing peptide.
(§2) All these peptides are amidated at the C-terminus.
(In general: In SPR one partner is held on a chip, and binding of the other changes the refractive index at the surface.)

Assay [2] has as its target T1, human α-CGRP K35M (19-37) (human, not fully specified).
T1 peptide: SGGVVKNNFVPTNVGSMAF-NH2
Description: Biacore: 50 nM G1 Fab with 10 uM competing peptide in solution, over human α-CGRP on chip.
Description: as §1, §2

The target of assay [3] is T2, human α-CGRP 26-37 (human).
T2 peptide: NFVPTNVGSKAF-NH2
The assay is described as above.
Description: as §1, §2

Assay [4] addresses T3, human α-CGRP P29A (19-37) (human).
T3 peptide: SGGVVKNNFVATNVGSKAF-NH2
Described as above.
Description: as §1, §2

The target in assay [5] is T4, human α-CGRP K35E (19-37) (human, not fully specified).
T4 peptide: SGGVVKNNFVPTNVGSEAF-NH2
Described as above.
Description: as §1, §2

The target of assay [6] is T5, rat β-CGRP (1-37) (rat, C-terminal amide; N-terminal biotin when captured on the SA chip).
T5 construct: also called rat β (1-37)
T5 peptide: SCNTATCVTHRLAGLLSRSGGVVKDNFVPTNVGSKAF
Described as above.
Description: as §1, §2

In assay [7] the target is T6, human α-CGRP 8-37 (human, C-terminal amide).
T6 peptide: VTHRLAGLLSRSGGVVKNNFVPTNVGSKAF
The description is as above.
Description: as §1, §2

For assay [8], the target named is T7, rat α-CGRP (1-37) (rat, C-terminal amide; N-terminal biotin when captured on the SA chip).
T7 construct: also called rat α (1-37); α-rat
T7 peptide: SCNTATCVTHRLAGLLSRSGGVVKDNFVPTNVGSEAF
The description is as above.
Description: as §1, §2

For assay [9], the target named is T8, human β-CGRP (1-37) (human, not fully specified; C-terminal amide; N-terminal biotin when captured on the SA chip).
T8 construct: also called human β (1-37)
T8 peptide: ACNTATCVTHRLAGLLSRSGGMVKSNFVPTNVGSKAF
The assay is described as above.
Description: as §1, §2

Assay [10] deals with T9, human α-CGRP K35A (19-37) (human, not fully specified).
T9 peptide: SGGVVKNNFVPTNVGSAAF-NH2
The assay is described as above.
Description: as §1, §2

Assay [11] addresses B1. Description: Biacore peptide competition (FIG. 6).
Description: as §1, §2

Assay [12] has as its target human α-CGRP 19-36-COOH (human, Table 4: free C-terminus (COOH); paragraph 375 calls it amidated at the C-terminus). Description: Biacore peptide competition (FIG. 6).
Description: as §1, §2

For assay [13], the target named is B6. Description: Biacore peptide competition (FIG. 6).
Description: as §1, §2

Assay [14] concerns the target B5. Description: Biacore peptide competition (FIG. 6).
Description: as §1, §2

The target in assay [15] is B3. Description: Biacore peptide competition (FIG. 6).
Description: as §1, §2

Assay [16] addresses B2. Description: Biacore peptide competition (FIG. 6).
Description: as §1, §2

Assay [17] concerns the target T10, human α-CGRP 1-36-COOH (human, free C-terminus (not amidated)).
T10 construct: also called 1-36 (not amidated at the C-terminus)
T10 peptide: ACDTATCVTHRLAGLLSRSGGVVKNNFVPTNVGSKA
Description: Biacore: 50 nM G1 Fab with 10 uM competing peptide in solution, over human α-CGRP on chip.

Where no end group is shown, it is not given here.

In the case of B1, the binding result in assay [1] is recorded as “no binding (tested: 10 uM)”.
The same measure, in the same setting: for B2 the value was “no binding (tested: 10 uM)”; for B3, “no binding (tested: 10 uM)”.
B4: the “% of binding blocked by competing peptide” value in assay [2], in assay [3], in [4], in assay [5], in assay [6] and in assay [7] was 100% each time. The “% of binding blocked by competing peptide” value was 100% in [8], 100% in assay [9], 100% in assay [10] and ~40% in assay [17]. For the same molecule, the binding result in assay [11], in [12], in assay [13], in [14], in assay [15] and in assay [16] was “no binding (tested: 10 uM peptide in 50 nM G1 Fab)” throughout.
For the molecule B5, the binding result in assay [1] is “no binding (tested: 10 uM)”.
On the same count and under the same terms, next, B6: “no binding (tested: 10 uM)”.

B7: 19-36 CONH2 (peptide)
peptide: SGGVVKNNFVPTNVGSKA-NH2
notes: also called human α-CGRP 19-36, amidated at the C-terminus
As for B7, in [1], the “% Binding blocked” value came out at 0.6% and the binding result is “no binding (tested: 10 uM)”.
